# Test results published in IntAct's records for PubMed 20927106.
# B1: Coronatine-insensitive protein 1 (Arabidopsis thaliana (Mouse-ear cress)), O04197 (parent)
# chain: MEDPDIKRCKLSCVATVDDVIEQVMTYITDPKDRDSASLVCRRWFKIDSETREHVTMALCYTATPDRLSRRFPNLRSLKLKGKPRAAMFNLIPENWGGYVTPWVTEISNNLRQLKSVHFRRMIVSDLDLDRLAKARADDLETLKLDKCSGFTTDGLLSIVTHCRKIKTLLMEESSFSEKDGKWLHELAQHNTSLEVLNFYMTEFAKISPKDLETIARNCRSLVSVKVGDFEILELVGFFKAAANLEEFCGGSLNEDIGMPEKYMNLVFPRKLCRLGLSYMGPNEMPILFPFAAQIRKLDLLYALLETEDHCTLIQKCPNLEVLETRNVIGDRGLEVLAQYCKQLKRLRIERGADEQGMEDEEGLVSQRGLIALAQGCQELEYMAVYVSDITNESLESIGTYLKNLCDFRLVLLDREERITDLPLDNGVRSLLIGCKKLRRFAFYLRQGGLTDLGLSYIGQYSPNVRWMLLGYVGESDEGLMEFSRGCPNLQKLEMRGCCFSERAIAAAVTKLPSLRYLWVQGYRASMTGQDLMQMARPYWNIELIPSRRVPEVNQQGEIREMEHPAHILAYYSLAGQRTDCPTTVRVLKEPI
# partner: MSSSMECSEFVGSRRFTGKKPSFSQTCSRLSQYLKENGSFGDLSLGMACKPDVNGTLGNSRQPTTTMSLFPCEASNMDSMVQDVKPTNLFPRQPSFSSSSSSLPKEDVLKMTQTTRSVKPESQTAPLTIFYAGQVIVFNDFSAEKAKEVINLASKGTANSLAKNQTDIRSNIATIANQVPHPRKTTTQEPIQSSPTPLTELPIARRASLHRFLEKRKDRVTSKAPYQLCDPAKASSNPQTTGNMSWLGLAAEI
# Variants of: B1
# Conditions: with ti10a_arath TIFY10A
row,Variant,effect of a mutation on the interaction
1,R409A,disrupting interaction
2,Y444A,disrupting interaction
3,R496A,disrupting interaction
4,R85A,disrupting interaction
5,Y302A,disrupting interaction
6,R351A,disrupting interaction
7,L469A,disrupting interaction
8,Y386A,disrupting interaction
9,R348A,disrupting interaction
10,R121A,disrupting interaction
11,L301A,disrupting interaction
12,F89A,disrupting interaction
13,R326A,disrupting interaction
14,M88A,disrupting interaction
